Results reported in patent US20240002497A1 (Merck Sharp & Dohme, published 2024).
Substitutions are numbered along the chain they refer to. Numbers in names are those of the source. Values belong to the binder of their own block, whether it stands above or below them.

How the values were obtained:
[1] = biological target: T1, huNav1.7α + β1-β2-β3 (human, UniProt Q15858 1-1988; A5A6L6 19-218; O60939 30-215; Q2KI11 23-215); experiment: binding FACS, CHO FlpIn
T1 construct: also called huNav1.7-beta1-beta2-beta3; huNav1.7-β1-β2-β3
Procedure: (§1) Binding of the ISVDs to cell-expressed Nav1.7α was detected via murine anti-Flag (Sigma, catalog #F1804). Briefly, cells were resuspended in FACS buffer (PBS, 10% FBS, NaN₃) and transferred to a 96-well V-bottom plate at 1×10^5 cells/well. Purified FLAG3-tagged ISVD was diluted in FACS buffer and added to the cells for 30 minutes at 4° C. […] Prior to the read-out, the samples were resuspended in 1 μg/mL propidium iodide (Sigma, catalog #P4170) to exclude dead cells. Between each step, the cells were centrifuged for 5 minutes at 200 grams and washed with 100 μL/well FACS buffer.

[2] = biological target: T2, rhNav1.7α + β1-β2-β3 (rhesus monkey); experiment: binding FACS, CHO FlpIn cells
T2 construct: also called rhNav1.7-beta1-beta2-beta3; rhesus Nav1.7α
Procedure: as §1

[3] = biological target: T3, huNav1.7α + β1-β2-β3 (human, UniProt Q15858 1-1988; A5A6L6 19-218; O60939 30-215; Q2KI11 23-215); experiment: binding FACS, CHO FlpIn cells
T3 construct: Cell line (CHO FlpIn, HEK FlpIn, transient HEK293T) is named under assay; also called huNav1.7-beta1-beta2-beta3; human Nav1.7α with Navβ1, Navβ2 and Navβ3
Procedure: as §1

binding result [2]: no binding
Bmax [3]: 100%
EC50 [3]: 5.3 nM
B5: F010302341 (VHH)
VHH: EVQLVESGGGVVQPGGSLRLSCAASSRQFIRDVFTGWYRQAPGKQRELVARIYNEGNTNYADSAKGRFTISRDNAKKTVYLQMNSLRPEDTALYYCLFSGTISTGREYRSGDYWGQGTLVTVSS

Bmax [2]: 70%
EC50 [2]: 11 nM
Bmax [3]: 100%
EC50 [3]: 4 nM
B8: F010302334 (VHH)
VHH: B5 VHH with Q40R, N59Q

Bmax [2]: 96%
EC50 [2]: 13 nM
Bmax [3]: 100%
EC50 [3]: 4.6 nM
B9: F010302340 (VHH)
VHH: B5 VHH with S26H, Q28A, V33L, Q40R, N54E, E55S

Bmax [2]: 79%
EC50 [2]: 9.7 nM
Bmax [3]: 100%
EC50 [3]: 3.6 nM
B12: F010302336 (VHH)
VHH: B5 VHH with S26H, Q40R, N59Q

Bmax [1]: 100%
EC50 [1]: 10 nM
B13: F010301870 (VHH)
VHH: EVQLVESGGGVVQPGGSLRLSCATTSRAFIRDVFTGWYRRVPGKERELVARIYNGGNTNYADFAKGRFTISRDNAKKMVYLQMNSLRPEDTALYYCNFSGTINTGREYRSGDYWGQGTLVTVSS
notes: also called F0103464B09(L11V, S68T, T79Y, R81Q, S82aN, N82bS, K83R, G88A, V89L, L93N)

Bmax [1]: 100%
EC50 [1]: 3.1 nM
B15: F010302365 (VHH)
VHH: B5 VHH with Q28A, Q40R, E55G
notes: also called F0103464B09(L11V, T24A, T25S, V40A, E44Q, F62S, S68T, M77T, T79Y, R81Q, S82aN, N82bS, K83R, G88A, V89L, N99S)

Bmax [1]: 100%
EC50 [1]: 3.9 nM
B17: F010302368 (VHH)
VHH: B5 VHH with Q28A, E55G, A64V
notes: also called F0103464B09(L11V, T24A, T25S, R39Q, V40A, E44Q, F62S, A63V, S68T, M77T, T79Y, R81Q, S82aN, N82bS, K83R, G88A, V89L,N99S)

The remaining lines, values behind:

B1: F010302357 (VHH)
VHH: B5 VHH with A64V
Bmax [1]: 100%
EC50 [1]: 5.3 nM

B2: F010302345 (VHH)
VHH: B5 VHH with S26H, N54E, E55G, N59Q
Bmax [2]: 96%
EC50 [2]: 12 nM
Bmax [3]: 100%
EC50 [3]: 4.9 nM

B3: F010302338 (VHH)
VHH: B5 VHH with S26H, Q28A, Q40R, N54E, E55S, N59Q
Bmax [2]: 100%
EC50 [2]: 7.9 nM
Bmax [3]: 100%
EC50 [3]: 3.4 nM

B4: F010302339 (VHH)
VHH: B5 VHH with S26H, Q28A, Q40R, N54E, E55G, N59Q
Bmax [2]: 100%
EC50 [2]: 6.8 nM
Bmax [3]: 100%
EC50 [3]: 4.3 nM

B6: F010302333 (VHH)
VHH: B5 VHH with Q40R
binding result [2]: no binding
Bmax [3]: 100%
EC50 [3]: 4.1 nM

B7: F010302342 (VHH)
VHH: B5 VHH with N59Q
Bmax [2]: 61%
EC50 [2]: 16 nM
Bmax [3]: 100%
EC50 [3]: 4 nM

B10: F010302337 (VHH)
VHH: B5 VHH with S26H, Q40R, N54E, E55G, N59Q
Bmax [2]: 100%
EC50 [2]: 6.8 nM
Bmax [3]: 100%
EC50 [3]: 3.9 nM

B11: F010302335 (VHH)
VHH: B5 VHH with Q40R, N54E, E55S, N59Q
Bmax [2]: 84%
EC50 [2]: 13 nM
Bmax [3]: 100%
EC50 [3]: 4.1 nM

B14: F010302366 (VHH)
VHH: B5 VHH with Q28A, E55G
notes: also called F0103464B09(L11V, T24A, T25S, R39Q, V40A, E44Q, F62S, S68T, M77T, T79Y, R81Q, S82aN, N82bS, K83R, G88A, V89L, N99S)
Bmax [1]: 100%
EC50 [1]: 3.7 nM

B16: F010302333 (VHH)
VHH: B5 VHH with Q40R
Bmax [1]: 100%
EC50 [1]: 4.1 nM
